Laboratory results reported in paper PMC5499601 (Nucleic Acids Research, 2017).
Changes are numbered by the printed parent chain. Numbers in names are those of the source.

B1: wild-type Bacillus subtilis Spo0J (BsSpo0J) (natural protein)
chain: MAKGLGKGINALFNQVDLSEETVEEIKIADLRPNPYQPRKHFDDEALAELKESVLQHGILQPLIVRKSLKGYDIVAGERRFRAAKLAGLDTVPAIVRELSEALMREIALLENLQREDLSPLEEAQAYDSLLKHLDLTQEQLAKRLGKSRPHIANHLRLLTLPENIQQLIAEGTLSMGHGRTLLGLKNKNKLEPLVQKVIAEQLNVRQLEQLIQQLNQNVPRETKKKEPVKDAVLKERESYLQNYFGTTVNIKRQKKKGKIEIEFFSNEDLDRILELLSERES
B2: BsSpo0J G77S (natural protein)
chain: B1 chain with G77S
B3: BsSpo0J R79A (natural protein)
chain: B1 chain with R79A
B4: BsSpo0J R105E (natural protein)
chain: B1 chain with R105E
B5: BsSpo0J P62A (natural protein)
chain: B1 chain with P62A

Target: the molecule itself
Assay: SEC

Stoichiometry N, 2:
B1
B2
B3
B4
B5
